Test [1] concerns the target human IL-13 (human).
The target of test [2] is native human IL-13 released from HDLM-2 cells (human).
Test [3] deals with human IL-13 (human). The source holds these as a separate data set.
For test [4], the target named is human IL-13 variant (Q130R) with carboxyl terminus affinity tag (baculovirus expression) (human).
The target in test [5] is non-human primate IL-13 (rhesus and cynomolgus, identical) with carboxyl terminus affinity tag (cynomolgus and rhesus monkey).

This note sets out measurements from patent US7935343B2.

Sequence of non-human primate IL-13 (rhesus and cynomolgus, identical) with carboxyl terminus affinity tag (cynomolgus and rhesus monkey) (chain, as listed by the source): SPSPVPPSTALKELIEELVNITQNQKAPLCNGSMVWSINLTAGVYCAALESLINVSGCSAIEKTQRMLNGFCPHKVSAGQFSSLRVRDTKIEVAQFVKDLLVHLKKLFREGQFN
Sequence of human IL-13 variant (Q130R) with carboxyl terminus affinity tag (baculovirus expression) (human) (chain, as listed by the source Q130R Q130R): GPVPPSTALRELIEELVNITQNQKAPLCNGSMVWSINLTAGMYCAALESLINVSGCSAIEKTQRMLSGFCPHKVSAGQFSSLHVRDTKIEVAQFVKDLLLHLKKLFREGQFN

“B-B13 (mouse IgG1, Euroclone) (antibody)” had an IC50, TF-1 proliferation with human IL-13 (human) [1] of 1020 pM. Also, the IC50, HDLM-2 cell proliferation in test [2] came to 16.7 nM. The same substance registered an IC50, eotaxin release from NHLF in the test with human IL-13 (human) [3] of 219 pM.

As for “JES10-5A2 (rat IgG1, Biosource) (antibody)”, the IC50, TF-1 proliferation with human IL-13 (human) [1] was determined as 471 pM. In addition, the IC50, HDLM-2 cell proliferation in test [2] stood at 10.7 nM. The IC50, eotaxin release from NHLF with human IL-13 (human) [3] came out at 623 pM.

With BAK502G9 IgG4 (antibody), the IC50, TF-1 cell proliferation amounted to 1.9 nM in test [4] and 2 nM in test [5].
